# Source: publication PMC4920197, “SMN and coilin negatively regulate dyskerin association with telomerase RNA” (Biology Open, 2016)
# Molecular target: T1, GFP-tagged SMN E134K (human, UniProt Q16637 1-294, E134K)
# T1 construct: survivor of motor neuron protein (SMN) with the clinically defined SMA patient mutation E134K, made from GFP-SMN; source: HeLa, transfected (FuGENE HD), in lysate
# Test: co-IP; HeLa cells transfected 24 h with GFP vector or GFP-tagged coilin or SMN constructs; lysate in mRIPA buffer immunoprecipitated with anti-GFP antibody; endogenous dyskerin or NAF1 detected by western blot
# Conditions: partners not purified
# T1 sequence (Q16637 whole entry E134K): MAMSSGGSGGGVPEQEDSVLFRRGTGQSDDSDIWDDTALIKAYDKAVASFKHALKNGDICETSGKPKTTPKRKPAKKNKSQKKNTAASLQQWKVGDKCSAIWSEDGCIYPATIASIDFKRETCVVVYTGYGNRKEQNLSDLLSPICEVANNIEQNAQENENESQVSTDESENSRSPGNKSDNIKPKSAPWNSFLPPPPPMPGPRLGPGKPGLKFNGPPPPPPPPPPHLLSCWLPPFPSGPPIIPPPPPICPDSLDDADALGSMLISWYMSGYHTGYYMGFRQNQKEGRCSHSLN
binder,measurement,value
"dyskerin (natural protein, human (endogenous in HeLa), UniProt O60832 1-514, looked up, dyskerin, endogenous in HeLa cells; also called telomerase and box H/ACA scaRNP core protein dyskerin; source: endogenous, HeLa lysate) MADAEVIILPKKHKKKKERKSLPEEDVAEIQHAEEFLIKPESKVAKLDTSQWPLLLKNFDKLNVRTTHYTPLACGSNPLKREIGDYIRTGFINLDKPSNPSSHEVVAWIRRILRVEKTGHSGTLDPKVTGCLIVCIERATRLVKSQQSAGKEYVGIVRLHNAIEGGTQLSRALETLTGALFQRPPLIAAVKRQLRVRTIYESKMIEYDPERRLGIFWVSCEAGTYIRTLCVHLGLLLGVGGQMQELRRVRSGVMSEKDHMVTMHDVLDAQWLYDNHKDESYLRRVVYPLEKLLTSHKRLVMKDSAVNAICYGAKIMLPGVLRYEDGIEVNQEIVVITTKGEAICMAIALMTTAVISTCDHGIVAKIKRVIMERDTYPRKWGLGPKASQKKLMIKQGLLDKHGKPTDSTPATWKQEYVDYSESAKKEVVAEVVKAPQVVAEAAKTAKRKRESESESDETPPAAPQLIKKEKKKSKKDKKAKAGLESGAEPGDGDSDTTKKKKKKKKAKEVELVSE",decrease of dyskerin in the SMN complex relative to WT SMN,~50%
